Measured values reported in US9879306B2, “Luciferase biosensors for cAMP” (PROMEGA CORPORATION, priority 2008, dated 2018).

T1: GPR41 (Homo sapiens, UniProt O14843)
T1 sequence (O14843 1-346): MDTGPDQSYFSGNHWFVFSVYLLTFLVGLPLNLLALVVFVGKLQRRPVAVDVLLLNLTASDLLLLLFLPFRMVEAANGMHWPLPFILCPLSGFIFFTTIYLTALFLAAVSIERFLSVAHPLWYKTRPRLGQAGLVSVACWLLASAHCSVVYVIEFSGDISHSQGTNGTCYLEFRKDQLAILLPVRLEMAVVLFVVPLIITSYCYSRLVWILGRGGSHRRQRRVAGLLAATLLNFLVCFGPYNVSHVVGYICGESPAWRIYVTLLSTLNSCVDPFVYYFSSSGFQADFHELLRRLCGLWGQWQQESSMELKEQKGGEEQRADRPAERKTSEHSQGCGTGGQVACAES


Columns and labels:
[1] = tested on: GPR41; assay: Sodium proprionate CRC with biosensor variants in HEK293 cells stably expressing GPR41; type: cell-based; conditions: ratio of RLU of FSK treated well to untreated well
Method: (§1) After 24 hours, the cells were transiently transfected with one of the cAMP biosensor variants (Tables 7A and 7B). After another 24 hours, the cells were equilibrated for 2 hours at room temperature using 5 mM EF-luc in CO2 independent media with 10% FBS. Prior to the addition of the compounds, luminescence was measured. The compounds (12× stock in CO2 independent media without FBS) were then added to the cells. For GPR41 expressing cells, sodium proprionate CRC was added. […] The cells were allowed to incubate another 30 minutes and luminescence read on a Varioskan Flash. EC50 values and fold responses were calculated for each of the clones with each of the compounds with or without FSK. In addition, variants […]7 (Example VIIB), 16A2 (Example VIIB) and GS358 were also screened.

[2] = target: T1, GPR41; assay: as above; type: cell-based; conditions: for Fold Response Na proprionate + FSK(1 μM): with FSK 1 μM; for Fold Response Na proprionate: without FSK, ratio of induced to uninduced signal
Method: as §1

Row | Molecule | Fold Signal Change [1] [fold] | Fold Response Na proprionate + FSK(1 μM) [2] [fold] | Fold Response Na proprionate [2] [fold]
1 | L9-I: L9 background with Luc2.0 F369I; SEQ ID NO:92, 93 (protein) MPGAVGKVVPFIEAKVVDLDTGKTLGVNQRGELCVRGPMIMSGYVNNPEATNALIDKDGWLHSGDIAYWDEDEHFFIVDRLKSLIKYKGYQVAPAELESILLQHPNIFDAGVAGLPDDDAGELPAAVVVLEHGKTMTEKEIVDYVASQVTTAKKLRGGVVFVDEVPKGLTGKLDARKIREILIKAKKGSIAGCGDAGEGMYESFIESLPFLKSLEFSARLKVVDVIGTKVYNDGEQIIAQGDSADSFFIIESGEVKITMKRKGKSEVEENGAVEIARCSRGQYFGELALVTNKPRAASAHAIGTVKCLAMDVQAFERLLGPCMEIMKRNIATYEEQLVALFGTNMDIVAKNIKKGPAPFYPLEDGTAGEQLHKAMKRYALVPGTIAFTDAHIEVDITYAEYFEMSVRLAEAMKRYGLNTNHRIVVCSENSLQFFMPVLGALFIGVAVAPANDIYNERELLNSMGISQPTVVFVSKKGLQKILNVQKKLPIIQKIIIMDSKTDYQGFQSMYTFVTSHLPPGFNEYDFVPESFDRDKTIALIMNSSGSTGLPKGVALPHRTACVRFSHARDPIFGNQIIPDTAILSVVPFHHGFGMFTTLGYLICGFRVVLMYRFEEELFLRSLQDYKIQSALLVPTLFSFFAKSTLIDKYDLSNLHEIASGGAPLSKEVGEAVAKRFHLPGIRQGYGLTETTSAILITPEGV | 83.5 | 3.83 | 3.61
2 | L9-Q: L9 background with Luc2.0 K541Q; SEQ ID NO:96, 97 (protein) MPGAVGKVVPFFEAKVVDLDTGKTLGVNQRGELCVRGPMIMSGYVNNPEATNALIDKDGWLHSGDIAYWDEDEHFFIVDRLKSLIKYKGYQVAPAELESILLQHPNIFDAGVAGLPDDDAGELPAAVVVLEHGKTMTEKEIVDYVASQVTTAKKLRGGVVFVDEVPKGLTGKLDARKIREILIQAKKGSIAGCGDAGEGMYESFIESLPFLKSLEFSARLKVVDVIGTKVYNDGEQIIAQGDSADSFFIIESGEVKITMKRKGKSEVEENGAVEIARCSRGQYFGELALVTNKPRAASAHAIGTVKCLAMDVQAFERLLGPCMEIMKRNIATYEEQLVALFGTNMDIVAKNIKKGPAPFYPLEDGTAGEQLHKAMKRYALVPGTIAFTDAHIEVDITYAEYFEMSVRLAEAMKRYGLNTNHRIVVCSENSLQFFMPVLGALFIGVAVAPANDIYNERELLNSMGISQPTVVFVSKKGLQKILNVQKKLPIIQKIIIMDSKTDYQGFQSMYTFVTSHLPPGFNEYDFVPESFDRDKTIALIMNSSGSTGLPKGVALPHRTACVRFSHARDPIFGNQIIPDTAILSVVPFHHGFGMFTTLGYLICGFRVVLMYRFEEELFLRSLQDYKIQSALLVPTLFSFFAKSTLIDKYDLSNLHEIASGGAPLSKEVGEAVAKRFHLPGIRQGYGLTETTSAILITPEGV | 42.0 | 5.24 | 2.57
3 | L9-ILQ: L9 background with Luc2.0 F369I, F518L, K541Q; SEQ ID NO:86, 87 (protein) MPGAVGKVVPFIEAKVVDLDTGKTLGVNQRGELCVRGPMIMSGYVNNPEATNALIDKDGWLHSGDIAYWDEDEHFFIVDRLKSLIKYKGYQVAPAELESILLQHPNIFDAGVAGLPDDDAGELPAAVVVLEHGKTMTEKEIVDYVASQVTTAKKLRGGVVLVDEVPKGLTGKLDARKIREILIQAKKGSIAGCGDAGEGMYESFIESLPFLKSLEFSARLKVVDVIGTKVYNDGEQIIAQGDSADSFFIIESGEVKITMKRKGKSEVEENGAVEIARCSRGQYFGELALVTNKPRAASAHAIGTVKCLAMDVQAFERLLGPCMEIMKRNIATYEEQLVALFGTNMDIVAKNIKKGPAPFYPLEDGTAGEQLHKAMKRYALVPGTIAFTDAHIEVDITYAEYFEMSVRLAEAMKRYGLNTNHRIVVCSENSLQFFMPVLGALFIGVAVAPANDIYNERELLNSMGISQPTVVFVSKKGLQKILNVQKKLPIIQKIIIMDSKTDYQGFQSMYTFVTSHLPPGFNEYDFVPESFDRDKTIALIMNSSGSTGLPKGVALPHRTACVRFSHARDPIFGNQIIPDTAILSVVPFHHGFGMFTTLGYLICGFRVVLMYRFEEELFLRSLQDYKIQSALLVPTLFSFFAKSTLIDKYDLSNLHEIASGGAPLSKEVGEAVAKRFHLPGIRQGYGLTETTSAILITPEGV | 140.4 | 10.21 | 4.13
4 | L9-IQ: L9 background with Luc2.0 F369I, K541Q; SEQ ID NO:74, 75 (protein) MPGAVGKVVPFIEAKVVDLDTGKTLGVNQRGELCVRGPMIMSGYVNNPEATNALIDKDGWLHSGDIAYWDEDEHFFIVDRLKSLIKYKGYQVAPAELESILLQHPNIFDAGVAGLPDDDAGELPAAVVVLEHGKTMTEKEIVDYVASQVTTAKKLRGGVVFVDEVPKGLTGKLDARKIREILIQAKKGSIAGCGDAGEGMYESFIESLPFLKSLEFSARLKVVDVIGTKVYNDGEQIIAQGDSADSFFIIESGEVKITMKRKGKSEVEENGAVEIARCSRGQYFGELALVTNKPRAASAHAIGTVKCLAMDVQAFERLLGPCMEIMKRNIATYEEQLVALFGTNMDIVAKNIKKGPAPFYPLEDGTAGEQLHKAMKRYALVPGTIAFTDAHIEVDITYAEYFEMSVRLAEAMKRYGLNTNHRIVVCSENSLQFFMPVLGALFIGVAVAPANDIYNERELLNSMGISQPTVVFVSKKGLQKILNVQKKLPIIQKIIIMDSKTDYQGFQSMYTFVTSHLPPGFNEYDFVPESFDRDKTIALIMNSSGSTGLPKGVALPHRTACVRFSHARDPIFGNQIIPDTAILSVVPFHHGFGMFTTLGYLICGFRVVLMYRFEEELFLRSLQDYKIQSALLVPTLFSFFAKSTLIDKYDLSNLHEIASGGAPLSKEVGEAVAKRFHLPGIRQGYGLTETTSAILITPEGV | 64.0 | 5.17 | 3.41
5 | L9-Y: L9 background with RIIβB F407Y; SEQ ID NO:98, 99 (protein) MPGAVGKVVPFFEAKVVDLDTGKTLGVNQRGELCVRGPMIMSGYVNNPEATNALIDKDGWLHSGDIAYWDEDEHFFIVDRLKSLIKYKGYQVAPAELESILLQHPNIFDAGVAGLPDDDAGELPAAVVVLEHGKTMTEKEIVDYVASQVTTAKKLRGGVVFVDEVPKGLTGKLDARKIREILIKAKKGSIAGCGDAGEGMYESFIESLPFLKSLEFSARLKVVDVIGTKVYNDGEQIIAQGDSADSFFIIESGEVKITMKRKGKSEVEENGAVEIARCSRGQYFGELALVTNKPRAASAHAIGTVKCLAMDVQAFERLLGPCMEIMKRNIATYEEQLVALYGTNMDIVAKNIKKGPAPFYPLEDGTAGEQLHKAMKRYALVPGTIAFTDAHIEVDITYAEYFEMSVRLAEAMKRYGLNTNHRIVVCSENSLQFFMPVLGALFIGVAVAPANDIYNERELLNSMGISQPTVVFVSKKGLQKILNVQKKLPIIQKIIIMDSKTDYQGFQSMYTFVTSHLPPGFNEYDFVPESFDRDKTIALIMNSSGSTGLPKGVALPHRTACVRFSHARDPIFGNQIIPDTAILSVVPFHHGFGMFTTLGYLICGFRVVLMYRFEEELFLRSLQDYKIQSALLVPTLFSFFAKSTLIDKYDLSNLHEIASGGAPLSKEVGEAVAKRFHLPGIRQGYGLTETTSAILITPEGV | 55.8 | 3.88 | 2.17
6 | L9-IL: L9 background with Luc2.0 F369I, F518L; SEQ ID NO:84, 85 (protein) MPGAVGKVVPFIEAKVVDLDTGKTLGVNQRGELCVRGPMIMSGYVNNPEATNALIDKDGWLHSGDIAYWDEDEHFFIVDRLKSLIKYKGYQVAPAELESILLQHPNIFDAGVAGLPDDDAGELPAAVVVLEHGKTMTEKEIVDYVASQVTTAKKLRGGVVLVDEVPKGLTGKLDARKIREILIKAKKGSIAGCGDAGEGMYESFIESLPFLKSLEFSARLKVVDVIGTKVYNDGEQIIAQGDSADSFFIIESGEVKITMKRKGKSEVEENGAVEIARCSRGQYFGELALVTNKPRAASAHAIGTVKCLAMDVQAFERLLGPCMEIMKRNIATYEEQLVALFGTNMDIVAKNIKKGPAPFYPLEDGTAGEQLHKAMKRYALVPGTIAFTDAHIEVDITYAEYFEMSVRLAEAMKRYGLNTNHRIVVCSENSLQFFMPVLGALFIGVAVAPANDIYNERELLNSMGISQPTVVFVSKKGLQKILNVQKKLPIIQKIIIMDSKTDYQGFQSMYTFVTSHLPPGFNEYDFVPESFDRDKTIALIMNSSGSTGLPKGVALPHRTACVRFSHARDPIFGNQIIPDTAILSVVPFHHGFGMFTTLGYLICGFRVVLMYRFEEELFLRSLQDYKIQSALLVPTLFSFFAKSTLIDKYDLSNLHEIASGGAPLSKEVGEAVAKRFHLPGIRQGYGLTETTSAILITPEGV | 96.7 | 7.43 | 3.67
